Measurements reported in PMC11329236.

Biological target: KIR3DL1-Fc (UniProt P43629)
Experiment: SPR; Biacore T200; KIR3DL1-Fc coupled to a series S Protein A chip at ~1000 RU; soluble monomers injected at 0-193 uM (wild type) or 0-234 uM (V97S); contact 300 s, dissociation 700 s; 25 C; HBS-EP+ buffer; 1:1 binding model

Sequence of UniProt P43629 (P43629 22-320): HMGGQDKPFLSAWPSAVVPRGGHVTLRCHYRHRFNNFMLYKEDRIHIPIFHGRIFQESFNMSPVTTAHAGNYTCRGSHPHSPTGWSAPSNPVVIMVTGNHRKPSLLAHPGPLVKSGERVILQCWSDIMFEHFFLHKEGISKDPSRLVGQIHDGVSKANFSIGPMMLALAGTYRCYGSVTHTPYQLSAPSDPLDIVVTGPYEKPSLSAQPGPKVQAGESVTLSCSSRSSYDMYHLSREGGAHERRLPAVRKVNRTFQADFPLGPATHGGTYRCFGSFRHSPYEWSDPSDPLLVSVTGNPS

soluble HLA-B*5701 V97S mutant monomer in complex with the TW10 peptide (from UniProt P61769 21-119) (peptide-MHC)
Kd: 185 µM
